Paper PMC5974087, “The RPAP3-Cterminal domain identifies R2TP-like quaternary chaperones” (Nature Communications, 2018)

B1: GFP-RPAP3-Cter [human] / SHQ1 [human (endogenous in HeLa)] (parent)
chain 1: AQFATTVLPPIPANSFQLESDFRQLKSSPDMLYQYLKQIEPSLYPKLFQKNLDPDVFNQIVKILHDFYIEKEKPLLIFEILQRLSELKRFDMAVMFMSETEKKIARALFNHIDKSGLKDSSVEELKKRYGG
chain 2: MLTPAFDLSQDPDFLTIAIRVPYARVSEFDVYFEGSDFKFYAKPYFLRLTLPGRIVENGSEQGSYDADKGIFTIRLPKETPGQHFEGLNMLTALLAPRKSRTAKPLVEEIGASEIPEEVVDDEEFDWEIEQTPCEEVSESALNPQCHYGFGNLRSGVLQRLQDELSDVIDIKDPDFTPAAERRQKRLAAELAKFDPDHYLADFFEDEAIEQILKYNPWWTDKYSKMMAFLEKSQEQENHATLVSFSEEEKYQLRKFVNKSYLLDKRACRQVCYSLIDILLAYCYETRVTEGEKNVESAWNIRKLSPTLCWFETWTNVHDIMVSFGRRVLCYPLYRHFKLVMKAYRDTIKILQLGKSAVLKCLLDIHKIFQENDPAYILNDLYISDYCVWIQKVKSKKLAALAEALKEVSLTKAQLGLELEELEAAALLVQEEETALKAAHSVSGQQTLCSSSEASDSEDSDSSVSSGNEDSGSDSEQDELKDSPSETVSSLQGPFLEESSAFLIVDGGVRRNTAIQESDASQGKPLASSWPLGVSGPLIEELGEQLKTTVQVSEPKGTTAVNRSNIQERDGCQTPNN

Variants of: B1
Assay: SILAC quantitative proteomics of GFP IP
Details: with SHQ1 [human (endogenous in HeLa)]; read off a plot

Q: For chain 1 R89A M92A, which enrichment (Log2 SILAC ratio) is on record?
A: Its enrichment (Log2 SILAC ratio) is 1.5.
